Measurements published in IntAct's records for PubMed 10524631.

B1: Phytochrome A (Arabidopsis thaliana (Mouse-ear cress)), P14712 (parent)
chain: MSGSRPTQSSEGSRRSRHSARIIAQTTVDAKLHADFEESGSSFDYSTSVRVTGPVVENQPPRSDKVTTTYLHHIQKGKLIQPFGCLLALDEKTFKVIAYSENASELLTMASHAVPSVGEHPVLGIGTDIRSLFTAPSASALQKALGFGDVSLLNPILVHCRTSAKPFYAIIHRVTGSIIIDFEPVKPYEVPMTAAGALQSYKLAAKAITRLQSLPSGSMERLCDTMVQEVFELTGYDRVMAYKFHEDDHGEVVSEVTKPGLEPYLGLHYPATDIPQAARFLFMKNKVRMIVDCNAKHARVLQDEKLSFDLTLCGSTLRAPHSCHLQYMANMDSIASLVMAVVVNEEDGEGDAPDATTQPQKRKRLWGLVVCHNTTPRFVPFPLRYACEFLAQVFAIHVNKEVELDNQMVEKNILRTQTLLCDMLMRDAPLGIVSQSPNIMDLVKCDGAALLYKDKIWKLGTTPSEFHLQEIASWLCEYHMDSTGLSTDSLHDAGFPRALSLGDSVCGMAAVRISSKDMIFWFRSHTAGEVRWGGAKHDPDDRDDARRMHPRSSFKAFLEVVKTRSLPWKDYEMDAIHSLQLILRNAFKDSETTDVNTKVIYSKLNDLKIDGIQELEAVTSEMVRLIETATVPILAVDSDGLVNGWNTKIAELTGLSVDEAIGKHFLTLVEDSSVEIVKRMLENALEGTEEQNVQFEIKTHLSRADAGPISLVVNACASRDLHENVVGVCFVAHDLTGQKTVMDKFTRIEGDYKAIIQNPNPLIPPIFGTDEFGWCTEWNPAMSKLTGLKREEVIDKMLLGEVFGTQKSCCRLKNQEAFVNLGIVLNNAVTSQDPEKVSFAFFTRGGKYVECLLCVSKKLDREGVVTGVFCFLQLASHELQQALHVQRLAERTAVKRLKALAYIKRQIRNPLSGIMFTRKMIEGTELGPEQRRILQTSALCQKQLSKILDDSDLESIIEGCLDLEMKEFTLNEVLTASTSQVMMKSNGKSVRITNETGEEVMSDTLYGDSIRLQQVLADFMLMAVNFTPSGGQLTVSASLRKDQLGRSVHLANLEIRLTHTGAGIPEFLLNQMFGTEEDVSEEGLSLMVSRKLVKLMNGDVQYLRQAGKSSFIITAELAAANK
partner: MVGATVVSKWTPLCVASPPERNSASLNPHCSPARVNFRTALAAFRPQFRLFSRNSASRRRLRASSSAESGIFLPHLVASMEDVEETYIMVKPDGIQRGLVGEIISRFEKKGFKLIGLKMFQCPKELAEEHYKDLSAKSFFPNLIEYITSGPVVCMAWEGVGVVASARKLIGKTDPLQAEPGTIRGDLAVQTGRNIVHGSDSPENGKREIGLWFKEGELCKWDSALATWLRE

Variants of: B1
Conditions: with ndk2_arath NDPK2, O64903

Row | effect of a mutation on the interaction | Variant
1 | decreasing interaction strength | G750E
2 | decreasing interaction | G727E
